Series [1] deals with T1, p53 (rp53) (UniProt P04637 1-393). Kind of series: competition.
Series [2] addresses T1, p53 (rp53). In words: EMSA.

T1 sequence (P04637 whole entry): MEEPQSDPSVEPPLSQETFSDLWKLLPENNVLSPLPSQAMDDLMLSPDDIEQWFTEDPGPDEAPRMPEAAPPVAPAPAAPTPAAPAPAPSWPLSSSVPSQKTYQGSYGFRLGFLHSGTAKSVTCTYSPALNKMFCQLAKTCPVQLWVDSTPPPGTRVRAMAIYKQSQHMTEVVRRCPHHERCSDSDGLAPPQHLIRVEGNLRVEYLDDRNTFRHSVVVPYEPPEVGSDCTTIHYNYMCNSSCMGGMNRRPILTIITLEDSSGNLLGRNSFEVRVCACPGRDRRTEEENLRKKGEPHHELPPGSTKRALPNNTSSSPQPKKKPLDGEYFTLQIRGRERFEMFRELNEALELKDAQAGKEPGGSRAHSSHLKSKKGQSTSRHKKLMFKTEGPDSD

B1: p53RE wt, unlabeled competitor (dsDNA)
DNA 1: ACTGAGCCATGGGCATGTCTGAACACAACA
DNA 2: TGTTGTGTTCAGACATGCCCATGGCTCAGT
For the molecule B1, in series [1], the binding result is listed as “binds”.

B2: p53RE wt (miR-205 upstream p53BS) (dsDNA)
DNA 1: B1 DNA 1
DNA 2: B1 DNA 2
On to B2, for which the binding result in series [2] is on record as “binds”.

B3: p53RE MUT (dsDNA)
DNA 1: ACTGAGCCATCCCGGCCGGCGAACACAACA
DNA 2: TGTTGTGTTCGCCGGCCGGGATGGCTCAGT
In the case of B3, in series [2], the binding result is “no binding”.

(Values after PMC3679926.)
